Data as given in patent US20130029358A1, “IMMUNODOMINANT MHC DR52B RESTRICTED NY-ESO-1 EPITOPES, MHC CLASS II MONOMERS AND MULTIMERS, AND USES THEREOF” (LUDWIG INSTITUTE FOR CANCER RESEARCH LTD., priority 2010, published 2013).

What was measured:
[1] = biological target: T1, DR52b (Homo sapiens, UniProt P01903+P79483); test: DR52b competition binding assay with biotin-labeled HA306-318 peptide; conditions: relative to untagged peptide
T1 construct: made in house; host or cells: D.Mel-2 (Drosophila) cells, pMT/BiP/V5-His A vector, secreted, purified on L243 anti-HLA-DR column
Method: (§1) FIG. 16. DR52b binding capacity of His-tagged and untagged ESO peptides and recognition by specific clones. (A) The capacity of His-tagged and untagged ESO peptides to bind to DR52b was assessed in a competition assay with a biotin-labeled HA-derived peptide. ESO and control peptides were incubated overnight at 37° C., at the indicated concentrations, with recombinant empty DR52b protein (5 μg) and biotin-labeled HA306-318 peptide (0.2 μM). The quantity of DR52b molecules containing the biotin-labeled peptide in each test-point was assessed by ELISA using anti-HLA-DR (clone L243) coated plates and alkaline phosphatase-labeled streptavidin. (B) ESO specific clones were incubated with DR52b^+ EBV-B cells and ESO peptides, at the indicated concentrations, and IFN-γ was measured by ELISA in 24 hrs culture supernatants. Results are shown for one clone representative of 3 clones tested.
Because our new approach involves the addition of a His-tag to the ESO peptides, it was important to address the effect of this modification on peptide binding to class II molecules and recognition by specific CD4^+ T cells. With this aim we assessed the relative efficiency of untagged and His-tagged ESO peptides to bind to DR52b using a previously described competition assay (13).

[2] = tested on: ESO specific clones; test: Recognition of His-tagged and untagged ESO peptides by specific clones with DR52b+ EBV-B cells (IFN-γ ELISA); assay type: cell-based, human; conditions: 24 hrs
Method: as §1, with “tested. DR52b^+ ESO-specific CD4^+ T cell clones or polyclonal cultures were stimulated in the absence or presence of ESO peptides (2 μM) or PMA (100 ng/ml) and ionomycin (1 μg/ml), as indicated, and cytokine production was assessed in a standard 4 hrs intracellular cytokine staining assay using mAb specific for IFN-γ, TNF-α, IL-2, IL-4, IL-10 (BD Biosciences) and IL-17 (eBiosciences), as previously described (9, 34). […]” for “tested.”

Substance	effect of His-tag on peptide binding to DR52b [1]	recognition by specific CD4+ T cells relative to untagged peptide [2]
His-tagged ESO119-143: ESO119-143 extended at the N-terminus by 6 His residues and a linker (Ser-Gly-Ser-Gly)	did not significantly modify	–
His-tagged ESO123-137: ESO123-137 extended at the N-terminus by 6 His residues and a linker (Ser-Gly-Ser-Gly)	did not significantly modify	moderately improved efficiency
